Experimental data published in patent US20220380801A1, “TRIPARTITE SYSTEMS FOR PROTEIN DIMERIZATION AND METHODS OF USE” (priority 2019, published 2022).

System: luciferase gene expression in HEK293 cells
Test: AAV transduction, inducible luciferase transgene in trans
Type: cell-based, human
Conditions: two separate AAV8 preparations, simeprevir
From the text: AAV expression vectors were generated by subcloning specific promoter and transgene elements into an intermediate vector derived from pAAV-CMV (Takara) in which the CMV promoter downstream of the 5′ITR was removed and a WPRE element and SV40 polyA sequence were inserted upstream of the 3′ ITR.
To generate AAV encoding an inducible luciferase transgene, the ZHFD1-luciferase cassette was amplified by PCR from pZFHD1-Luciferase provided in the iDimerize regulated transcription system (Takara) and subcloned into the intermediate AAV vector. […]
Recombinant AAV (rAAV) was produced by triple-transfection of 40 T-175 cm^2 flasks containing HEK293 T-17 cells at 80% confluency using a standard helper-free approach. […] Fractions were taken from the ultraclear centrifuge tubes by piercing the tube with a 19 gauge syringe in the 60% layer below the clear band representing the virus and the purity of each fraction was assessed by SDS-PAGE of each fraction and subsequent Sypro Ruby analysis. […]
All rAAV transduction assays were performed in adherent HEK293 cells cultured in 96-well plates. Cells enzymatically dissociated from a tissue culture flask were counted and plated at 2.5×10^4 cells/well in a 96-well plate. […] For luminescence assays, SteadyGlo luciferase substrate (Promega) was added and luminescence was quantified with an Envision plate reader. […]

B1: PRSIM_23: Tn3 protein specific for HCV NS3/4A PR (S139A):simeprevir complex, SEQ ID NO: 5 (protein)
chain: RLDAPSQIEVKDVTDTTALITWVDPRYDDIWWFELTYGIKDVPGDRTTIKLYLNDPYYSIGNLKPDTEYEVSLISYTGDSYSRSGSNPAKITFKTGL
modifications: PRSIM_23
- induction of luciferase activity: 228 fold
